The values below come from the array DNA melting data of Ke et al..

In general, Tm refers to the temperature at the midpoint of the melting transition.

The nature of the data set: melting temperature; melt of duplexes. To be noted: sodium 0.0675 M; strand 1 µM.
Regarding “CGACGTGCTGCATGTGCTG+CAGCACATTGGGCACGTCG ((((((((...((((((((+))))))))...))))))))”, the Tm was 50.1 °C.

Regarding “CGACGTGCTATATGTGCTG+CAGCACATTTCGCACGTCG ((((((((.(.((((((((+)))))))).).))))))))”, the Tm was 49 °C.

On to “CGACGTGCGATATGTGCTG+CAGCACATGTCGCACGTCG ((((((((((.((((((((+)))))))).))))))))))”, for which the Tm was determined as 61 °C.

For the substance “CGACGTGCAAGATGTGCTG+CAGCACATCGAGCACGTCG ((((((((..(((((((((+)))))))))..))))))))”, the Tm came out at 57.9 °C.

Take “CGACGTGCCCGATGTGCTG+CAGCACATTACGCACGTCG ((((((((...((((((((+))))))))...))))))))”: the Tm was 48 °C.

Turning to “CGACGTGCCGGATGTGCTG+CAGCACATGCTGCACGTCG ((((((((.(.((((((((+)))))))).).))))))))”, the Tm came to 51.3 °C.

In the case of “CGACGTGCGTTATGTGCTG+CAGCACATCCCGCACGTCG (((((((((..((((((((+))))))))..)))))))))”, the Tm turned out to be 51.7 °C.

As to “CGACGTGCTCCATGTGCTG+CAGCACATTAAGCACGTCG (((((((((..((((((((+))))))))..)))))))))”, the melting temperature (Tm) was found to be 49.4 °C.

For the substance “CGACGTGCATTATGTGCTG+CAGCACATAGTGCACGTCG (((((((((.(((((((((+))))))))).)))))))))”, the Tm is 53.1 °C.

As to “CGACGTGCATCATGTGCTG+CAGCACATAACGCACGTCG ((((((((.(.((((((((+)))))))).).))))))))”, the Tm was determined as 48.3 °C.

In the case of “CGACGTGCACGATGTGCTG+CAGCACATCTAGCACGTCG ((((((((..(((((((((+)))))))))..))))))))”, the Tm is 51.3 °C.

In the case of “CGACGTGCCGCATGTGCTG+CAGCACATTTGGCACGTCG (((((((((..((((((((+))))))))..)))))))))”, the Tm came to 53.9 °C.

For the substance “CGACGTGCCGCATGTGCTG+CAGCACATAAAGCACGTCG ((((((((...((((((((+))))))))...))))))))”, the Tm worked out at 50.1 °C.

For the substance “CGACGTGCGTTATGTGCTG+CAGCACATAGGGCACGTCG ((((((((..(((((((((+)))))))))..))))))))”, the Tm stood at 52.5 °C.

“CGACGTGCACCATGTGCTG+CAGCACATACGGCACGTCG ((((((((...((((((((+))))))))...))))))))”: the Tm was 42.9 °C.

Consider “CGACGTGCGAAATGTGCTG+CAGCACATTTAGCACGTCG ((((((((.((((((((((+)))))))))).))))))))”, for which the Tm turned out to be 57.9 °C.

As for “CGACGTGCTCGATGTGCTG+CAGCACATACTGCACGTCG ((((((((...((((((((+))))))))...))))))))”, the Tm stood at 49 °C.

“CGACGTGCGGAATGTGCTG+CAGCACATGCGGCACGTCG ((((((((.(.((((((((+)))))))).).))))))))”: the Tm was found to be 54.3 °C.

With “CGACGTGCCAAATGTGCTG+CAGCACATGACGCACGTCG ((((((((...((((((((+))))))))...))))))))”, the melting temperature (Tm) worked out at 47.5 °C.

Turning to “CGACGTGCGGTATGTGCTG+CAGCACATGCCGCACGTCG ((((((((((.((((((((+)))))))).))))))))))”, the Tm stood at 63.4 °C.

For “CGACGTGCAGCATGTGCTG+CAGCACATGACGCACGTCG ((((((((..(((((((((+)))))))))..))))))))”, the Tm worked out at 52 °C.

On to “CGACGTGCCTAATGTGCTG+CAGCACATTGCGCACGTCG ((((((((..(((((((((+)))))))))..))))))))”, for which the Tm was 51 °C.

Consider “CGACGTGCAGGATGTGCTG+CAGCACATAAGGCACGTCG ((((((((...((((((((+))))))))...))))))))”, for which the Tm turned out to be 50.8 °C.

Consider “CGACGTGCTCAATGTGCTG+CAGCACATGGAGCACGTCG ((((((((((.((((((((+)))))))).))))))))))”, for which the Tm worked out at 59.5 °C.

For the substance “CGACGTGCTAAATGTGCTG+CAGCACATCCTGCACGTCG ((((((((...((((((((+))))))))...))))))))”, the Tm was determined as 49 °C.

For “CGACGTGCGTTATGTGCTG+CAGCACATCCAGCACGTCG ((((((((...((((((((+))))))))...))))))))”, the Tm stood at 49.6 °C.

“CGACGTGCTCAATGTGCTG+CAGCACATTGGGCACGTCG ((((((((.((((((((((+)))))))))).))))))))”: the Tm came to 60.1 °C.

On to “CGACGTGCTTCATGTGCTG+CAGCACATAAGGCACGTCG ((((((((.(.((((((((+)))))))).).))))))))”, for which the melting temperature (Tm) came out at 50.6 °C.

“CGACGTGCTGGATGTGCTG+CAGCACATCCGGCACGTCG ((((((((.((((((((((+)))))))))).))))))))”: the Tm stood at 62.9 °C.

With “CGACGTGCAATATGTGCTG+CAGCACATCGTGCACGTCG (((((((((..((((((((+))))))))..)))))))))”, the Tm came out at 45.9 °C.

In the case of “CGACGTGCTCCATGTGCTG+CAGCACATCTTGCACGTCG ((((((((...((((((((+))))))))...))))))))”, the Tm turned out to be 47.2 °C.

As to “CGACGTGCTGAATGTGCTG+CAGCACATACTGCACGTCG ((((((((.(.((((((((+)))))))).).))))))))”, the Tm turned out to be 53.7 °C.

As for “CGACGTGCCCCATGTGCTG+CAGCACATCAGGCACGTCG (((((((((..((((((((+))))))))..)))))))))”, the Tm was 52.5 °C.

Regarding “CGACGTGCCTGATGTGCTG+CAGCACATCAAGCACGTCG ((((((((.((((((((((+)))))))))).))))))))”, the Tm was 56.6 °C.

“CGACGTGCTTTATGTGCTG+CAGCACATGGTGCACGTCG ((((((((...((((((((+))))))))...))))))))”: the Tm amounted to 45.6 °C.

For the substance “CGACGTGCTGTATGTGCTG+CAGCACATAATGCACGTCG ((((((((..(((((((((+)))))))))..))))))))”, the Tm was 51.5 °C.

Consider “CGACGTGCCGCATGTGCTG+CAGCACATGTAGCACGTCG ((((((((..(((((((((+)))))))))..))))))))”, for which the Tm is 54.4 °C.

With “CGACGTGCGAAATGTGCTG+CAGCACATGAGGCACGTCG ((((((((...((((((((+))))))))...))))))))”, the Tm was found to be 54.5 °C.

Regarding “CGACGTGCCTGATGTGCTG+CAGCACATTGCGCACGTCG ((((((((...((((((((+))))))))...))))))))”, the Tm was determined as 49.3 °C.

Take “CGACGTGCTACATGTGCTG+CAGCACATCTCGCACGTCG ((((((((.(.((((((((+)))))))).).))))))))”: the Tm was 47.2 °C.

Take “CGACGTGCAAAATGTGCTG+CAGCACATAGAGCACGTCG ((((((((...((((((((+))))))))...))))))))”: the Tm turned out to be 48.9 °C.

As for “CGACGTGCCGTATGTGCTG+CAGCACATTACGCACGTCG ((((((((...((((((((+))))))))...))))))))”, the Tm is 50.9 °C.

In the case of “CGACGTGCTGGATGTGCTG+CAGCACATGGAGCACGTCG (((((((((..((((((((+))))))))..)))))))))”, the Tm is 53.2 °C.

Regarding “CGACGTGCATAATGTGCTG+CAGCACATCGAGCACGTCG ((((((((...((((((((+))))))))...))))))))”, the Tm turned out to be 48.5 °C.

As for “CGACGTGCAGAATGTGCTG+CAGCACATCTTGCACGTCG (((((((((..((((((((+))))))))..)))))))))”, the Tm amounted to 52.3 °C.

Consider “CGACGTGCAAGATGTGCTG+CAGCACATGAAGCACGTCG ((((((((...((((((((+))))))))...))))))))”, for which the Tm turned out to be 52.2 °C.

For the substance “CGACGTGCCAAATGTGCTG+CAGCACATTCGGCACGTCG (((((((((.(((((((((+))))))))).)))))))))”, the Tm was found to be 57.5 °C.

For the substance “CGACGTGCAGAATGTGCTG+CAGCACATGTGGCACGTCG ((((((((...((((((((+))))))))...))))))))”, the midpoint of thermal melting (Tm) is 51.7 °C.

As to “CGACGTGCACCATGTGCTG+CAGCACATAACGCACGTCG ((((((((...((((((((+))))))))...))))))))”, the Tm came out at 43.8 °C.

On to “CGACGTGCCCGATGTGCTG+CAGCACATAACGCACGTCG ((((((((...((((((((+))))))))...))))))))”, for which the Tm was 47.6 °C.

As for “CGACGTGCGCAATGTGCTG+CAGCACATAGCGCACGTCG ((((((((((.((((((((+)))))))).))))))))))”, the Tm stood at 61.2 °C.

Regarding “CGACGTGCGCTATGTGCTG+CAGCACATGTAGCACGTCG ((((((((...((((((((+))))))))...))))))))”, the Tm turned out to be 52.5 °C.

Take “CGACGTGCCCAATGTGCTG+CAGCACATGGAGCACGTCG ((((((((.(.((((((((+)))))))).).))))))))”: the Tm is 55.5 °C.

Consider “CGACGTGCCGAATGTGCTG+CAGCACATTTTGCACGTCG ((((((((..(((((((((+)))))))))..))))))))”, for which the Tm stood at 51.7 °C.

Turning to “CGACGTGCGACATGTGCTG+CAGCACATACGGCACGTCG ((((((((...((((((((+))))))))...))))))))”, the Tm came to 48.8 °C.

As for “CGACGTGCCATATGTGCTG+CAGCACATCGTGCACGTCG ((((((((...((((((((+))))))))...))))))))”, the midpoint of thermal melting (Tm) was 44.2 °C.

In the case of “CGACGTGCTCTATGTGCTG+CAGCACATACAGCACGTCG (((((((((.(((((((((+))))))))).)))))))))”, the Tm was found to be 52.5 °C.

As to “CGACGTGCTCTATGTGCTG+CAGCACATGTCGCACGTCG ((((((((...((((((((+))))))))...))))))))”, the Tm was 48.1 °C.

In the case of “CGACGTGCGAGATGTGCTG+CAGCACATGGGGCACGTCG ((((((((...((((((((+))))))))...))))))))”, the Tm was 51.1 °C.

Consider “CGACGTGCCCAATGTGCTG+CAGCACATTATGCACGTCG ((((((((..(((((((((+)))))))))..))))))))”, for which the Tm came out at 50.1 °C.

Regarding “CGACGTGCACTATGTGCTG+CAGCACATCGTGCACGTCG ((((((((((.((((((((+)))))))).))))))))))”, the Tm was determined as 51.4 °C.

With “CGACGTGCTCCATGTGCTG+CAGCACATGCTGCACGTCG ((((((((..(((((((((+)))))))))..))))))))”, the Tm worked out at 50.8 °C.

As to “CGACGTGCTACATGTGCTG+CAGCACATCCGGCACGTCG ((((((((...((((((((+))))))))...))))))))”, the Tm came out at 48.7 °C.

Regarding “CGACGTGCGTAATGTGCTG+CAGCACATGTGGCACGTCG ((((((((...((((((((+))))))))...))))))))”, the Tm is 51.8 °C.

With “CGACGTGCACAATGTGCTG+CAGCACATCCGGCACGTCG ((((((((...((((((((+))))))))...))))))))”, the Tm came to 46.1 °C.

For the substance “CGACGTGCCGAATGTGCTG+CAGCACATACTGCACGTCG ((((((((.(.((((((((+)))))))).).))))))))”, the Tm came out at 50.2 °C.
